Test results as given in patent publication US20240294914A1, “COMPOSITIONS AND METHODS FOR TREATING HEPATITIS B VIRUS INFECTION” (priority 2021, published 2024).
Strand notation (5' to 3'): a small letter for the sugar, then the base; units joined by * are phosphorothioate-linked, units joined directly phosphodiester-linked; [ ] holds rarer units or linkages, { } end groups; capitals alone tell only the bases. m = 2'-O-methyl; r = 2'-OH (RNA)

Assays:
[1] = tested on: HBV genome in HEK293T cells transduced with a lentiviral vector; assay: Base editing efficiency in Hek293-lentiHBV system (PCR amplicons sequenced on MiSeq); assay type: cell-based, Hepatitis B virus; design: Editing Efficiency 2 (%): concentration or dose not given beside the values; settings: for Average Editing Efficiency (%): average of 3, base editor Cas12b-ABE; for Average Editing Efficiency (%) / Editing Efficiency 1 (%) / Editing Efficiency 2 (%) / Editing Efficiency 3 (%): plasmid transfection, four days; for Editing Efficiency 1 (%): replicate 1, base editor Cas12b-ABE; for Editing Efficiency 2 (%): replicate 2, base editor Cas12b-ABE; for Editing Efficiency 3 (%): replicate 3, base editor Cas12b-ABE
Hepatitis B virus = assay: Antiviral efficacy in HBV-infected primary human hepatocytes (HBV-PHH): HBsAg, HBeAg, HBV DNA, 3.5 kb RNA, rebound; assay type: cell-based; settings: HBV-PHH system, guide RNA + mRNA encoding base editor
Text: (§1) Base editor systems comparing guide RNAs evaluated in Example 1 were subsequently tested for anti-viral and editing efficacy using the Hepatitis B virus-primary human hepatocyte (HBV-PHH) system. Cells were transfected with the guide RNAs and mRNAs encoding the base editor as described in Example 1. […] Guide RNAs ABE-133, MSPbeam94, and ABE-85 were associated with a 70-80% reduction of HBV DNA as compared to controls. The guide RNAs PolyA-NGC1 and PolyA-NGC2 were associated with high editing followed by 90% efficacy in reduction of HbeAg.
The HBV-PHH system for studying the Hepatitis B virus is described, for example, by Winer, et al., “Long-term hepatitis B infection in a scalable hepatic co-culture system,” Nat. Commun. 8:125 (2017) and by Zhou, et al. “Long-term maintenance of human fetal hepatocytes and prolonged susceptibility to HBV infection by co-culture with non-parenchymal cells,” J. Virol Methods, 195:185-93 (2014); and is provided commercially by ImQuest BioSciences (imquestbio.com/programs/virology/hbv/)).
(§2) The design of the experiments is described schematically in FIG. 14. Primary human hepatocyte (PHH) cells were infected with HBV at day 0. At days 4 and 11, the cells were transfected with mRNA encoding BE4 and with gRNA37 and gRNA40. Measurements of HBV DNA were taken over time, and measurements of HBsAg, HBeAG, HBV total DNA, 3.5 kb RNA, and cccDNA editing were taken at day 25. The experiments were carried out using a PHH co-culture system available from PhoenixBio. The PHH co-culture system maintained hepatocyte differentiation and metabolic activity for over 30 days. The HBV infection in the cells was persistent and a cccDNA level was maintained.
(§3) The design of the experiments is described schematically in FIG. 18. Primary human hepatocyte (PHH) cells were infected with HBV at day 0, at day 4 an 8-day. Treatment with lamivudine commenced (which included a 3-day pretreatment period within the 8-day total), and cells were transfected with mRNA encoding BE4 and the gRNAs gRNA37 and gRNA40 at days 7 and 14. HBV DNA levels were measured over time, and additional HBV markers were measured at day 21.
(§4) Primary hepatocytes (PHH) co-cultures infected with HBV were used to test antiviral efficacy of base editing systems. Primary hepatocyte co-culture (PHH) infected with HBV virus is a clinically relevant system for assessing anti-viral activity of base editing systems. The base editing reagents (mRNA encoding a base editor(s) and synthetic gRNA) were transfected via lipofection twice over the course of two weeks. The first transfection was performed about 3, 4, or 7 days after infection (days post infection (dpi)). Not being bound by theory, this 3-to-7-day period ensured that the cccDNA was completely formed at the time of the transfection. The second transfection was at about 7, 10, 11, or 14 days after infection. Extracellular parameters (e.g., HBsAg, HBeAg, and HBV DNA) were monitored over the course of the experiment (including the end of the experiment) and intracellular parameters (HBV DNA, viral RNA, and editing) were measured at the end of the experiment. Cells were lysed at the termination of the experiment (e.g., at 15, 17, 21, or 25 days).
(§5) Transfection details: RNA format, 800 ng total RNA per well in a 24 well plate (600 ng base editor-encoding mRNA+200 ng gRNA) transfected via lipofection (lipofectamin messengerMax, thermofisher Scientific) according to the vendor protocol.

HBV cccDNA = assay: Base editing of HBV cccDNA in primary human hepatocytes (HBV-PHH); assay type: cell-based, Hepatitis B virus; settings: HBV-PHH system
Text: as §1
Having identified gRNA37 and gRNA40 as effective gRNAs, the antiviral efficacy of a base editor system containing BE4, gRNA37 and gRNA40 (i.e., multiplexing gRNAs) was evaluated, FIGS. 8-10. It was determined that the base editor system multiplexed with the two gRNAs was associated with a reduction of HBV viral parameters in HepG2-NTCP cells, see FIG. 9. […] For the evaluation of editing of cccDNA, the cccDNA was enriched via Hirt extraction and ExoI/ExoIII nuclease treatment to remove rcDNA (relaxed circular DNA). Throughout the Examples provided herein, editing of cccDNA was evaluated using next generation sequencing completed using cccDNA enriched in this way.
as §2, §3, §4, §5

B1: cas12b-127: guide RNA SEQ ID NO: 390 (nucleic acid)
guide: mG*mU*mU*rCrUrGrUrCrUrUrUrUrGrGrUrCrArGrGrArCrArArCrCrGrUrCrUrArGrCrUrArUrArArGrUrGrCrUrGrCrArGrGrGrUrGrUrGrArGrArArArCrUrCrCrUrArUrUrGrCrUrGrGrArCrGrArUrGrUrCrUrCrUrUrArCrGrArGrGrCrArUrUrArGrCrArCrArCrArCrArGrArArArGrGrCrCrUrUrGrUrArArG
- Average Editing Efficiency (%) [1]: 42.25%
- Editing Efficiency 1 (%) [1]: 50.16%
- Editing Efficiency 2 (%) [1]: 37.40%
- Editing Efficiency 3 (%) [1]: 39.21%

B2: cas12b-124: guide RNA SEQ ID NO: 389 (nucleic acid)
guide: mG*mU*mU*rCrUrGrUrCrUrUrUrUrGrGrUrCrArGrGrArCrArArCrCrGrUrCrUrArGrCrUrArUrArArGrUrGrCrUrGrCrArGrGrGrUrGrUrGrArGrArArArCrUrCrCrUrArUrUrGrCrUrGrGrArCrGrArUrGrUrCrUrCrUrUrArCrGrArGrGrCrArUrUrArGrCrArCrCrCrGrGrGrCrArArCrGrGrGrGrUrArArArGrGrU
- Average Editing Efficiency (%) [1]: 17.47%
- Editing Efficiency 1 (%) [1]: 29.50%
- Editing Efficiency 2 (%) [1]: 11.78%
- Editing Efficiency 3 (%) [1]: 11.15%

B3: cas12b-5: guide RNA SEQ ID NO: 380 (nucleic acid)
guide: mG*mU*mU*rCrUrGrUrCrUrUrUrUrGrGrUrCrArGrGrArCrArArCrCrGrUrCrUrArGrCrUrArUrArArGrUrGrCrUrGrCrArGrGrGrUrGrUrGrArGrArArArCrUrCrCrUrArUrUrGrCrUrGrGrArCrGrArUrGrUrCrUrCrUrUrArCrGrArGrGrCrArUrUrArGrCrArCrUrCrGrCrUrGrGrArUrGrUrGrUrCrUrGrCrGrGrC
- Average Editing Efficiency (%) [1]: 0.54%
- Editing Efficiency 1 (%) [1]: 0.12%
- Editing Efficiency 2 (%) [1]: 0.36%
- Editing Efficiency 3 (%) [1]: 1.14%

B4: cas12b-152: guide RNA SEQ ID NO: 5523 (nucleic acid)
guide: GUUCUGUCUUUUGGUCAGGACAACCGUCUAGCUAUAAGUGCUGCAGGGUGUGAGAAACUCCUAUUGCUGGACGAUGUCUCUUACGAGGCAUUAGCACAGAGAAGUCCACCACGAGUC
modifications: listed as RNA, chemistry not fully specified
- % Editing average ([1]; base editor Cas12b-ABE): 54%
- HBV markers relative to the no treatment control (cccDNA editing and/or viral replication) (Hepatitis B virus): robust reduction in all HBV markers

B5: PolyA-NGC1: guide RNA SEQ ID NO: 5499 (nucleic acid)
guide: GACCCTTATAAAGAATTTGGGTTTTAGAGCTAGAAATAGCAAGTTAAAATAAGGCTAGTCCGTTATCAACTTGAAAAAGTGGCACCGAGTCGGTGCTTTT
modifications: chemistry not fully specified
- HBV markers relative to the no treatment control (cccDNA editing and/or viral replication) (Hepatitis B virus): robust reduction in all HBV markers
- efficacy in reduction of HbeAg (Hepatitis B virus): 90%
- cccDNA Editing in PHH A > G % (HBV cccDNA): 60.4%
- editing (HBV cccDNA): high editing

B6: ABE-133: guide RNA SEQ ID NO: 5516 (nucleic acid)
guide: GAAGATGAGGCATAGCAGCAGTTTTAGAGCTAGAAATAGCAAGTTAAAATAAGGCTAGTCCGTTATCAACTTGAAAAAGTGGCACCGAGTCGGTGCTTTT
modifications: chemistry not fully specified
- % Editing average ([1]; base editor VRQR-ABE): 65%
- HBV markers relative to the no treatment control (cccDNA editing and/or viral replication) (Hepatitis B virus): robust reduction in all HBV markers
- cccDNA Editing in PHH A > G % (HBV cccDNA): 76.0%

B7: cas12b-122b: guide RNA SEQ ID NO: 391 (nucleic acid)
guide: GTTCTGTCTTTTGGTCAGGACAACCGTCTAGCTATAAGTGCTGCAGGGTGTGAGAAACTCCTATTGCTGGACGATGTCTCTTACGAGGCATTAGCACCACGCACGCGCTGATGGCCC
modifications: sugars from the 5' end m3 r114, linkages s3 o113 (s phosphorothioate, o phosphodiester), T or U not given here
- Average Editing Efficiency (%) [1]: 5.51%
- Editing Efficiency 1 (%) [1]: 8.22%
- Editing Efficiency 2 (%) [1]: 3.91%
- Editing Efficiency 3 (%) [1]: 4.39%

B8: cas12b-4: guide RNA SEQ ID NO: 379 (nucleic acid)
guide: mG*mU*mU*rCrUrGrUrCrUrUrUrUrGrGrUrCrArGrGrArCrArArCrCrGrUrCrUrArGrCrUrArUrArArGrUrGrCrUrGrCrArGrGrGrUrGrUrGrArGrArArArCrUrCrCrUrArUrUrGrCrUrGrGrArCrGrArUrGrUrCrUrCrUrUrArCrGrArGrGrCrArUrUrArGrCrArCrArCrArArGrArArUrCrCrUrCrArCrArArUrArCrC
- Average Editing Efficiency (%) [1]: 20.00%
- Editing Efficiency 1 (%) [1]: 14.70%
- Editing Efficiency 2 (%) [1]: 26.37%
- Editing Efficiency 3 (%) [1]: 18.93%

B9: cas12b-11: guide RNA SEQ ID NO: 381 (nucleic acid)
guide: mG*mU*mU*rCrUrGrUrCrUrUrUrUrGrGrUrCrArGrGrArCrArArCrCrGrUrCrUrArGrCrUrArUrArArGrUrGrCrUrGrCrArGrGrGrUrGrUrGrArGrArArArCrUrCrCrUrArUrUrGrCrUrGrGrArCrGrArUrGrUrCrUrCrUrUrArCrGrArGrGrCrArUrUrArGrCrArCrCrArCrCrUrGrUrArUrUrCrCrCrArUrCrCrCrArU
- Average Editing Efficiency (%) [1]: 58.03%
- Editing Efficiency 1 (%) [1]: 44.34%
- Editing Efficiency 2 (%) [1]: 60.28%
- Editing Efficiency 3 (%) [1]: 69.47%
- HBV markers relative to the no treatment control (cccDNA editing and/or viral replication) (Hepatitis B virus): robust reduction in all HBV markers

B10: PolyA-NGC2: guide RNA SEQ ID NO: 5500 (nucleic acid)
guide: TTTATAAGGGTCGATGTCCAGTTTTAGAGCTAGAAATAGCAAGTTAAAATAAGGCTAGTCCGTTATCAACTTGAAAAAGTGGCACCGAGTCGGTGCTTTT
modifications: chemistry not fully specified
- HBV markers relative to the no treatment control (cccDNA editing and/or viral replication) (Hepatitis B virus): robust reduction in all HBV markers
- efficacy in reduction of HbeAg (Hepatitis B virus): 90%
- cccDNA Editing in PHH A > G % (HBV cccDNA): 62.9%
- editing (HBV cccDNA): high editing

B11: cas12b-35: guide RNA SEQ ID NO: 388 (nucleic acid)
guide: mG*mU*mU*rCrUrGrUrCrUrUrUrUrGrGrUrCrArGrGrArCrArArCrCrGrUrCrUrArGrCrUrArUrArArGrUrGrCrUrGrCrArGrGrGrUrGrUrGrArGrArArArCrUrCrCrUrArUrUrGrCrUrGrGrArCrGrArUrGrUrCrUrCrUrUrArCrGrArGrGrCrArUrUrArGrCrArCrCrCrCrArArGrGrUrCrUrUrArCrArUrArArGrArG
- Average Editing Efficiency (%) [1]: 0.35%
- Editing Efficiency 1 (%) [1]: 0.31%
- Editing Efficiency 2 (%) [1]: 0.04%
- Editing Efficiency 3 (%) [1]: 0.70%
